According to PMC4259466:

Legend:
ROCK2 = ROCK2 (UniProt O75116); assay: GST-MLC2 pull-down from HeLa lysate; conditions: sites Y118
MLC2 = MLC2 (UniProt P10916); assay: His-PKM2 bead pull-down of GST-MLC2; conditions: reference: WT His-PKM2 without Aurora B; sites T45

In the case of “MLC2 (from UniProt P10916) GST-MLC2 Y118F”, the “binding against the reference” value (ROCK2; reference: GST-MLC2 wild type) is reported as “lost”.
With “MLC2 (from UniProt P10916) GST-MLC2 with PKM2 and PEP” the “binding against the reference” value (ROCK2; reference: GST-MLC2 with PKM2, no PEP) was “stronger”.
For “PKM2 (from UniProt P14618) WT His-PKM2 treated with Aurora B”, the “binding against the reference” value (MLC2) was “stronger”.
